# Laboratory results from patent US20190233517A1.
# Tests used:
# [1] = target: Daudi; assay: FACS binding; Daudi cells
# [2] = target: Raji (human) (UniProt P11836); assay: FACS binding; Raji cells
# [3] = target: HER3 (UniProt P21860); assay: kinetic binding data, method not stated
# Chain of Raji (human) (P11836 whole entry): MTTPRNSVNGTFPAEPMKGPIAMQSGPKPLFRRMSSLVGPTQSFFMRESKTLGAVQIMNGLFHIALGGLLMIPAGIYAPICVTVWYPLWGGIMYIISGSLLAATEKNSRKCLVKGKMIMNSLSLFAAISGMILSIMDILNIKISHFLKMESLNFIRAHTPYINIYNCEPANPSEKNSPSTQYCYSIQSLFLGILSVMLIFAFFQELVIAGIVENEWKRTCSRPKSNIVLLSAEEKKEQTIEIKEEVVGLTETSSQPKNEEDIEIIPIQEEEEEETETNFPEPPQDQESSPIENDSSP
substance,measurement,setting,value
Epratuzumab/ Ofatumumab (1:1),EC50,[1],6.98 nM
Epratuzuman/ Ofatumumab (1:1),EC50,[2],3.25 nM
FIT019a-Ig HER3 (patritumab)/EGFR (Panitumumab) (bispecific antibody),Kd,[3],0.0321 nM
